In PMC2615213, “Serum Activity of Platelet-Activating Factor Acetylhydrolase Is a Potential Clinical Marker for Leptospirosis Pulmonary Hemorrhage” (PLoS ONE, 2009):

Tested on: CCCCCCCCCCCCCC(=O)OC[C@H](COP(=O)([O-])OCC[N+](C)(C)C)OC(=O)CCC(=O)Oc1ccc([N+](=O)[O-])cc1
Assay: purified protein
Conditions: chromogenic substrate; mean of duplicate experiments

## rL-PAF-AH (recombinant His-tag-L-PAF-AH, LA2144) (Leptospira interrogans serovar Lai str. 56601)
  Km: 610 µM
  kcat: 6.61 s⁻¹
  kcat/Km: 10800 M⁻¹ s⁻¹
